Laboratory results from US20240384250A1, “FIBROBLAST GROWTH FACTOR 23 MODULATING COMPOUNDS” (THE UAB RESEARCH FOUNDATION, priority 2021, published 2024).

Key:
[1] = target: T1, FGF23 (Homo sapiens, UniProt Q9GZV9); experiment: Co-immunoprecipitation of FGF with FLAG-tagged sKL on anti-FLAG beads; assay type: binding; conditions: absence of FGFR
T1 construct: purchased R&D Systems 2604FG025/CF (human) or 2629FG025/CF (mouse)
T1 sequence (Q9GZV9 25-251): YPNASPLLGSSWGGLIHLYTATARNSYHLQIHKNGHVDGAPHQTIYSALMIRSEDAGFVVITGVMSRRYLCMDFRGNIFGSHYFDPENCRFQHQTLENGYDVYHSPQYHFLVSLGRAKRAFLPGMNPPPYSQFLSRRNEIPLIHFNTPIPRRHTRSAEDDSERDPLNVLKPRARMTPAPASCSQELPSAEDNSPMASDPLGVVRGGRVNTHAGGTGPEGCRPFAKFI
Protocol: To study the interaction between FLAG-tagged sKL and different FGF isoforms, co-immunoprecipitation studies were conducted. FLAG beads (A2220, Sigma-Aldrich) were used at 50 ul of 50% stock slurry per sample. Beads were washed 5× with activity buffer (50 mM Tris [pH 7.4], 200 mM NaCl, 0.01% Tween 20, Sigma-Aldrich). Bead spin-down assays were all performed for 2 minutes at 5000 g. Fifty microliters of a 50% slurry of beads per sample was resuspended in 1 ml of activity buffer in a 1.5-ml snap cap tube. One microgram of FLAG-tagged sKL or Carboxy-terminal bacterial alkaline phosphatase (BAPC; P7457, Sigma-Aldrich) was incubated with the beads for 1 hour on a bead rotator. Beads were then pelleted at 5000 g for 2 minutes and washed 5× with activity buffer. Beads were resuspended in 1 ml of activity buffer and samples with 500 ng of FGF. Beads were incubated for 1 hour on a tube rotator, and beads were pelleted and washed as before. One hundred microliters of I× Laemmli sample buffer (1610737, Bio-Rad) with 1.42 M 2-mercaptoethanol was added, and samples were boiled for 5 minutes and analyzed using sodium dodecylsulfate-polyacrylamide gel electrophoresis (SDS-PAGE) and Western blotting, as described below herein.
The sample (20 μl) was loaded onto Mini-PROTEAN TGX Precast Gel 4-20% for experiments with <9 samples (4568094, Bio-Rad) or Criterion TGX Precast Gel 4-20% (5678094, Bio-Rad) for experiments with >9 samples. Gels were run in 1× Tris/Glycine/SDS buffer (1610732, Bio-Rad) at 150 V and stopped when the sample dye reached the end of the gel. Gels were removed and electrotransferred via a semi-dry cassette (1703940, Bio-Rad) in I× Tris/Glycine buffer (1610734, Bio-Rad) with 20% methanol. Gels were transferred onto polyvinylidene diflouride membranes (IPVH00010, Millipore) at 20 V for 1 hour. Membranes were then blocked in 5% dried milk with 0.5% Tween 20 diluted in Tris-buffered saline (TBST; pH 7.5) for 1 hour and probed with antibodies against specific antigens at 1:1000 in TBST with 5% dried milk. Blots were washed 3× for 5 minutes in TBST and probed with HRP-coupled secondary antibodies against specific species at 1:10,000 in TBST with 5% dried milk. Membranes were imaged on the SRX-101A X-ray film developer (Konica Minolta).

[2] = target: T1, FGF23; experiment: Plate-based binding assay, FGF23 coated, FLAG-sKL detected with anti-FLAG HRP; conditions: for binding of FLAG-sKL to coated FGF23 (absorbance at 450 nm): 10 ng FGF coated, 40 ng FLAG-sKL; for binding of FLAG-sKL to coated FGF23 compared with FGFR1c: 20 ng FGF23 coated, 80 ng FLAG-sKL
Protocol: Proteins were coated on 96-well plates (MaxiSorp; 439454, Thermo Fisher Scientific), and proteins were added to wells in 100 μl of enzyme-linked immunosorbent assay (ELISA) coating buffer (E107, Bethyl Laboratories) with a lid placed overtop and incubated at 4° C. overnight. Plates were washed 5× with 350 μl of assay buffer (50 mM Tris [pH 7.4], 200 mM NaCl, 0.01% Tween 20) on a 50 TS microplate washer (BioTek). Plates were blocked for 1 hour in 200 μl of assay buffer with 0.5% BSA. Plates were washed as before, and proteins were incubated on plates in 100 μl of assay buffer with 0.5% BSA. Proteins or heparin was incubated in orders described in the respective figure legends. Assays using FLAG-tag-based detection were incubated with anti-FLAG coupled to HRP at 1:20,000, and assays using Fc detection were incubated with anti-human Fc coupled to HRP at 1:10,000. Plates were washed as above, and 100 μl of 3,3′,5,5′-tetramethylbenzidine (TMB) substrate (E102, Bethyl Laboratories) was added for 15 to 20 minutes until positive wells developed a dark blue color. Reactions were stopped with ELISA stop solution (E115, Bethyl Laboratories) and analyzed using the Synergy HI plate reader (BioTek) at 450 nm wavelength. […] As a control to remove background absorbance values, wells were coated with an equal amount of BSA to match the amount of protein coated in experimental wells and treated the same as experimental wells. To study the effects of sKL on the binding between paracrine FGFs and FGFRs, plates were run as above except coated with paracrine FGFs. Fc-FGFR1 was preincubated with sKL or vehicle for 60 minutes, and then the combination was added to wells and the assay was run as before.

- FGF23 co-precipitation with immobilized FLAG-sKL ([1]; listed as FLAG-sKL): bound FGF23
- FGF23 co-precipitation with immobilized FLAG-sKL ([1]; listed as FLAG-tagged sKL): FGF23 could be co-precipitated
- binding of FLAG-sKL to coated FGF23 (absorbance at 450 nm) [2]: bound FGF23
- binding of FLAG-sKL to coated FGF23 (absorbance at 450 nm) ([2]; listed as FLAG-sKL): only FGF23 bound FLAG-sKL
- binding of FLAG-sKL to coated FGF23 compared with FGFR1c [2]: to a lesser extent
- binding of FLAG-sKL to coated FGF23 compared with FGFR1c ([2]; listed as FLAG-sKL): to a lower extent
- FGF23 binding affinity, protein from HEK293 lysates instead of supernatants ([2]; 100 ng FGF23 coated, normalized to sKL amounts): higher
B1: sKL: recombinant soluble α-klotho ectodomain, mouse aa 35-982 and human aa 34-981, FLAG- or Strep/His-tagged, purified from HEK293 cells (protein)
chain: EPGDGAQTWARFSRPPAPEAAGLFQGTFPDGFLWAVGSAAYQTEGGWQQHGKGASIWDTFTHHPLAPPGDSRNASLPLGAPSPLQPATGDVASDSYNNVFRDTEALRELGVTHYRFSISWARVLPNGSAGVPNREGLRYYRRLLERLRELGVQPVVTLYHWDLPQRLQDAYGGWANRALADHFRDYAELCFRHFGGQVKYWITIDNPYVVAWHGYATGRLAPGIRGSPRLGYLVAHNLLLAHAKVWHLYNTSFRPTQGGQVSIALSSHWINPRRMTDHSIKECQKSLDFVLGWFAKPVFIDGDYPESMKNNLSSILPDFTESEKKFIKGTADFFALCFGPTLSFQLLDPHMKFRQLESPNLRQLLSWIDLEFNHPQIFIVENGWFVSGTTKRDDAKYMYYLKKFIMETLKAIKLDGVDVIGYTAWSLMDGFEWHRGYSIRRGLFYVDFLSQDKMLLPKSSALFYQKLIEKNGFPPLPENQPLEGTFPCDFAWGVVDNYIQVDTTLSQFTDLNVYLWDVHHSKRLIKVDGVVTKKRKSYCVDFAAIQPQIALLQEMHVTHFRFSLDWALILPLGNQSQVNHTILQYYRCMASELVRVNITPVVALWQPMAPNQGLPRLLARQGAWENPYTALAFAEYARLCFQELGHHVKLWITMNEPYTRNMTYSAGHNLLKAHALAWHVYNEKFRHAQNGKISIALQADWIEPACPFSQKDKEVAERVLEFDIGWLAEPIFGSGDYPWVMRDWLNQRNNFLLPYFTEDEKKLIQGTFDFLALSHYTTILVDSEKEDPIKYNDYLEVQEMTDITWLNSPSQVAVVPWGLRKVLNWLKFKYGDLPMYIISNGIDDGLHAEDDQLRVYYMQNYINEALKAHILDGINLCGYFAYSFNDRTAPRFGLYRYAADQFEPKASMKHYRKIIDSNGFPGPETLERFCPEEFTVCTECSFFHTRKS
modifications: left off: small tags and cut ends
notes: recombinant soluble α-klotho ectodomain, mouse aa 35-982 and human aa 34-981, FLAG- or Strep/His-tagged, purified from HEK293 cells
